Results on 41 sequences are retold here after the nanobody polyreactivity screen of Harvey et al. (2022).

The series is described as follows: yeast display, Sf9 membrane polyspecificity reagent, FACS + sequencing; frameworks hold sequencing errors. The gist of the method: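 Nanobodies from a synthetic yeast display library (Saccharomyces cerevisiae BJ5465), induced 36–48 hours with galactose, were stained 1 hour at 4 °C with 10% biotinylated, detergent-solubilized Sf9 membrane reagent, enriched on streptavidin microbeads, then FACS-sorted. Anti-HA (expression) and streptavidin (reagent binding) fluorescence set low and high (top ~1%) gates. Polyreactivity labels come from the gate of origin. Genes were colony-PCR amplified, MiSeq 2 × 250 sequenced and filtered by CDR length.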
Turning to “QVQLVESGGGLVQAGGSLRLSCAASGNTIIRYAIAWYRQAPGKERELVAAISYSGGRTYYADSVKGRFTISRDNANNTVYLQMNSLKPEDTAVYYCNAASRYGGDYWGQGTQVTVSS”, the “polyreactivity (PSR sort gate)” value is listed as “high polyreactivity”.
As to “QVQLVESGGGLVQAGGSLRLSCAASGFTFSGYAMGWYRHAPGKERELVAAISSRGGRTYYADSVKGRFTISRDNAKNTVYLQMNSLKPEDTAVYYCAARSRRTDNSVQFDYWGQGTQVTVSS”, the “polyreactivity (PSR sort gate)” value was “high polyreactivity”.
Turning to “QVQLVESGGGLVQAGGSLRLSCAASGSIFTNNAMGRYRQAPGKERELVAGISFRGSSTYADSVKGRFTISRDNAKNTVYLQMNSLKPEDTAVYYCAAEWFDLEDDYWGQGTQVTVSS”, the “polyreactivity (PSR sort gate)” value is reported as “low polyreactivity”.
On to “QVQLVESGGSLVQAGGSLRLSCAASGRIFYYNAMGWYRQAPGKERELVAAISWSGGSTYYADSVKGRFTISRDNAKNTVYLQMNSLKPEDTAVYYCAVDVYGYTPRPTREPLIYEYWGQGTQVTVSS”, for which the “polyreactivity (PSR sort gate)” value is on record as “low polyreactivity”.
“QVQLEESGGGLVQAGGSLRLSCAASGRIFSSYAMGWYRQAPGKERELVAAISSSGGRTYYADSVKGRFTISRDNAKNSVYLQMNSLKPEDTAVYYCARVTTGGYEYWGQGTQVTVSS”: the “polyreactivity (PSR sort gate)” value is “high polyreactivity”.
For “QVQLVESGGGLVQAGGRLRLSCAASGITFRWYAMGWYRQAPGKERELVAAITTSGDSTYYADSVKGRFTISRDNAKNTVYLQMNSLKPEDTAVNYCAAKYQSLRTYGYGFDYWGQGTQVTVSS”, the “polyreactivity (PSR sort gate)” value is “high polyreactivity”.
Take “QVQLVESGGGLVQAGGSLRLSCAASGSIFSYYVMGWYRQAPGKERELVAAISWSGGSTYYADSVKGRFTISRDNSKNTVYLQMNSLKPEDTAVYYCAAGTYPYYWGQGTQVTVSS”: the “polyreactivity (PSR sort gate)” value is “low polyreactivity”.
As to “QVQLQESDGGLVQAGGSLRLSCAASGSISPQYYMGWYRQAPGKEREFVAISKGTTTYYADSVKGRLTISRVNAKNTVYLQMNSLKPEDTAVYCCAAGRWLQNVHAYWDQGTQVTVSS”, the “polyreactivity (PSR sort gate)” value is recorded as “low polyreactivity”.
Next, “QVQLVESGGGLVQAGGSLRLSCAASGSIFHVNAMGWYRQAPGKERELVADISKRGASTYYADSVKGRFTISRDNAKNTVYLQMNSLKPEDTAVYYCAARVVTPRRQWYTYDYWGQGTQVTVSS”: “high polyreactivity”; “QVQLVESGVGLVQAGGSLRLSCAASGFTFYPYAMGWYRQAPGKERELVASITNGGSTNYADSVKGRFTISRDNAKNTVYLQMNSLKPEDTAVYYCTAAYGFYASRYWYASYDYWGQGTQVTVSS”: “low polyreactivity”; “QVQLVESGGGLVQAGGSLRLSCAASGRIFNFYAMGWYRQAPGKERELVASITSGGRTSYADSVKGRFTISRDNAKNTVYLQMNSLKPEDTAVYYCAAVLFGYPRTIGTWYDRYYYWGQGTQVTVSS”: “high polyreactivity”.
For “QVQLVESGGGLVQAGGSLRLSCAASGFTFYFYAMGWYRQAPGKERELVAAISRGGSTTYADSVKGRFTISRDNAKNTVYLQMNSLIPEDTAVSYCKADIYTWFQIGGYQYDYWGQGTQVTVSS”, the “polyreactivity (PSR sort gate)” value was “low polyreactivity”.
For the sequence “QVQLVESGGGLVQAGGSLRLSCAASGSTFAINAMGWYRQAPGKERELVAAISSSGSTNYADSVKGRFTISRDNAKNTVYLQMNSLIPEDTAVYYCAADRVWGTPQAYVPSQFDYWGQGTQVTVSS”, the “polyreactivity (PSR sort gate)” value is listed as “low polyreactivity”.
In the case of “QVQLVESGGGLVQAGGSLRLSCAASGRIFSTYAMGWYRQAPGKERELVAAINKIGGSTYYADSVKGRITISRDNAKNTVYLQMNSLKPEDTAVYYCAADAPYYPVRRYYYWGQGTQVTVSS”, the “polyreactivity (PSR sort gate)” value is “low polyreactivity”.
Take “QVQLVESGGALDQAGGRLPLSSAASGSIFRINAMRLYRQAPGKVRELVAAISWSGGSTYYADSVKGRFTISRDNAKNTVYLQMNSLKQEDTAVYYCADVVSKSSFDYWVQGTQVTVSS”: the “polyreactivity (PSR sort gate)” value is reported as “low polyreactivity”.
“QVQLVESGGGLVQAGGSLRLSCAASGFTIWAYTMGCYRQAPGKEREFVADITSRGGSTFYADSVKGRFTISRDNAKNTVYLQMNSLKPEDTAVDYCAAEGFDTRMYYWGQGTQVTVSS”: the “polyreactivity (PSR sort gate)” value was “high polyreactivity”.
Take “QVQLVESGGGLVQAGGSLRLSCAASGSTFSSYAMGWYRQAPGKEREFVAAISRSGVRTYYADSVKGRFTISRDNAKNSVYLQMNSLNPEDTVVYYCAAVSSLSYSFPYDYWGQGTQVTVSS”: the “polyreactivity (PSR sort gate)” value is “high polyreactivity”.
“QVQLVESGGGIVQAGGSLRLSCAASGFTFIRYAMLWYRQAPGIERELVAAITSSGGSTYSADSVKGRFTISRDNAKNTVYLQKNSLKPEDTAVYYCATVYSGPVRAIGYDYWGQGTQVTVSS”: the “polyreactivity (PSR sort gate)” value was “high polyreactivity”.
Next, “QVQLVESGGGLVQAGGSLRLSCAASGNIFSKYAMGWYRQAPGKERELVAAISRSGGRTYYADSVKGRFTISRDNAKNTVYLQMNSLNPEDTAFYYCNKAQRHYPYDYWGQGTQVTVSS”: “high polyreactivity”; “QVQLVESGGGLVQAGGSLRLSCAASGRILSYYAMGWYRQAPGKERELVARITGRGGSTYYADSVKGRFTISRDNAKNTVYLQMNSLKPEDTAVYYCAAVPWVVYSGYDYWGQGTQVTVSS”: “low polyreactivity”; “QVQLEESGGGLVQAGGSLRLSCAASGSTIHSYAMGWYRHAPGKERELVAAITTTGTRTYYADSVKGRFTISRDNAKNTVYLQMNSLKPEDTAVYYCNAQRLQAHRTSRRYGFWGQGTQVTVSS”: “high polyreactivity”.
On to “QVQLVESGGGLVQAGGSLRLSCAASGSTISRYAMGWYRQAPGKEREFVAAISWRGGSTYYADSVKGRFTISRDNAKNTVYLQLNSLKPEDTAVYYCNADYRYARKGHYGKFGYWGQGTQVNVSS”, for which the “polyreactivity (PSR sort gate)” value was “high polyreactivity”.
Turning to “QVQLGESGGGLVQAGGSLRLSCAASGRTFVSNAMGWYRPAPGNERELVAAITQSGGSTYADSVKGRFTISRDNAKNTVYLQMNSLKPEDTAVYYCNADHAFVGTYYERHDYWGQGTQVTVSS”, the “polyreactivity (PSR sort gate)” value is on record as “low polyreactivity”.
As to “QVEHVESGGGLVQAGGSLRLSCAASGITFAAYAMGWYRQARGTERELVAAISTSGDSTYYADSVKGRFTISRDYAKITVYLQMNSLKPADTAVYYCNDRRYGYGVGRGLYIYDYCGQGTQVTVSS”, the “polyreactivity (PSR sort gate)” value is “high polyreactivity”.
As to “QVQLVESGGGLVQAGGSLRLICAASVSTFRDHAMGWYRQAPAKERDLVAAIDIDSSTYYADSVKGRFTISLDNAKNSVYLHMNSLKPEDTAVYYCNKDASGGTTTEVDYWGQGTQVTVSS”, the “polyreactivity (PSR sort gate)” value is on record as “low polyreactivity”.
Next, “QVQLVESGGGVVQAGGSLRLSCAASGRTFKPYAMGWYRQAPGKERELVAAISSGVSTHYADSVKGRFTISRDNAKNTVYLQMNSLKPEDTAVYYCAADYWVNYWFDYWGQGTQVTVSS”: “low polyreactivity”.
“QVQLVESGGGLVQAGGSLRLSCAASGIFRSNTMGWYRQAPGKERELVATISRRSGSTYYADSVKGRFTISRDNAKNTVYLQMNSLKPEDTAVYYCAAAAPRRKYDYWGQGTQVTVSS”: the “polyreactivity (PSR sort gate)” value was “high polyreactivity”.
As to “QVQLVESGGGLVQAGGSLRLICAASGSTLKYYAMGWYRQAPGKERELVARITRSSGSTYYADSVKGRFTISRDNAKNTVYLQMNSLKPEDTAVYYCNAYGRFGLYDYWGQGTQVTVSS”, the “polyreactivity (PSR sort gate)” value is “high polyreactivity”.
As to “QVQLVESWGGLVQAGGSLRLSCAASGYTFSYYAMGWYRPAPWKERELVAAITSTGSTYYADSVKVRFTISRDNAKNTVYLQMNSLKPEDTAVYYCNVDDATVGPVDYWGQGTQVTVSS”, the “polyreactivity (PSR sort gate)” value was “low polyreactivity”.
As for “QVQLVESGGGLVQAGGSLRLSCAASGRTIYYYAMGWYRQAPGKERELVAAISRSGSSTFYADSVKGRFTISRDNAKNTVYLQMNSLKPEDTAVYYCAADDYSRRVYFFFGAYDYWGQGTQVTVSS”, the “polyreactivity (PSR sort gate)” value is reported as “high polyreactivity”.
For the sequence “QVQLVESGGGLFQAGGSLRISCAASGSTFLVNAMGWYRQAPGKEREFVAAITWTGGSTYYADSVKGRFTISRDNAKNSVYLQMNRLKPEDTAVYYCNTDWTYYGDQYRRGGYWGQGTQVTVSS”, the “polyreactivity (PSR sort gate)” value is “low polyreactivity”.
Regarding “QVQLVESGGGLVQAGGSLRLSCAASGSIFNNYAMGWYRQAPGKEREFVAAISRSGGSTYYADSVKGRFTISRDNAKNTVYLQMNSLKPEDTAVYYCATDHGRYHGRYDYWGQGTQVTVSS”, the “polyreactivity (PSR sort gate)” value is given as “high polyreactivity”.
As for “QVQLVESWGGLVQAGGSLRLSCAATGVTFKFYAMGWYRQAPGKERELVAAISWSGTSTYYADSVKGRFTISRDNAKNTVYLQMNSLKPEDTAVYYCAADKRLRGHGYDYWGQGTQVTVSS”, the “polyreactivity (PSR sort gate)” value is given as “high polyreactivity”.
As for “QVQLVESGGGLVQAGGSLRLSCAASGSIFYRNTMGWYRQAPGKERELVAGITGNGGRTYYADSVKGRFTISRDNAKNTVYLQMNSQKPEDTAVYYCAAGTWTWYRYYYWGQGTQVTVSS”, the “polyreactivity (PSR sort gate)” value was “high polyreactivity”.
Regarding “QVQLVESGGGLVQAGGSLRLSCAASGRIYPKYGMGWYRQAPGKERELVAAITSGTSTYYADSVKGRFTISRDNAKNTVYLQMNSLKPEDTAVYYCAARPTDGSGWPYRWTSDYWGQATQVTVSS”, the “polyreactivity (PSR sort gate)” value is reported as “low polyreactivity”.
On to “QVQLVESGGGLVQAGGSLRLSCAASGSIFRSYAMGWYRQAPGKERELVAAISRRGSSTYYADSVKGRFTISRDNAKNTVYLQMNSLKPEDTAVYYCNRVRYPRVDYWGQGTQVTVSS”, for which the “polyreactivity (PSR sort gate)” value is recorded as “high polyreactivity”.
“QVQLEESGGGLVQAGGSLRLSCAASGFTLPANGMGWYRQAPGKERELVAAISFIAGSTYYADSVKGRFTISRDNAKNTVYLQMNSLKPEDTAVYYCSTQFPPSTIYDYWGQGTQVTVSS”: the “polyreactivity (PSR sort gate)” value is “low polyreactivity”.
As to “QVQLVESGGGLVQAGGSLRLSCAASGSIQYYAMGWYRQAPGKERELVAAIRFSGGRTYYADSVKGRFTISRDNAKNTVYLQMNSLKPEDTAVYYCAAYRSPRRSGAPSQGKFDYWGQGTQVTVSS”, the “polyreactivity (PSR sort gate)” value is listed as “low polyreactivity”.
On to “QVQLVESGGGLVQAGGSLRLSCAASGFTFGSYAMGWYRQAPGKERELVAAISGRGGSTYYADSVKGRFTISRDNAKNTVYLQMNSLKPEDTAVYYCATDYSRTFDYWGQGTQVTVSS”, for which the “polyreactivity (PSR sort gate)” value is on record as “high polyreactivity”.
As to “QVQLVESGGGLVQAGGSLRLSCAASGRIFRIYTMGWYREAPGKERELVAAISKSGGGTYYADSVKGRFTISRDNAKNTVYLQMNSLKPEDTAVYYCAAVSPNTAYDYWGQGTQVTVSS”, the “polyreactivity (PSR sort gate)” value was “high polyreactivity”.
Next, “QDQLVESGGGLVQAGGSLRLSCAASGYTFTSNAMGWYRQAPRKERELVAAITNVGSTNYADSVKGRFTISRDNAKNTVNLQMNSLKPEDTAVYYCAAGGSSSWAFNYWGQGTQVTVSS”: “low polyreactivity”.
